Test results reported in US20200392228A1 (PANDION OPERATIONS, published 2020).
Where a chain is given by its changes, count along the chain named.

T1: human MAdCAM expressed on cells (human, UniProt Q13477 19-382)
T1 construct: whole, on cells; also called MADCAM1
T1 sequence (looked up): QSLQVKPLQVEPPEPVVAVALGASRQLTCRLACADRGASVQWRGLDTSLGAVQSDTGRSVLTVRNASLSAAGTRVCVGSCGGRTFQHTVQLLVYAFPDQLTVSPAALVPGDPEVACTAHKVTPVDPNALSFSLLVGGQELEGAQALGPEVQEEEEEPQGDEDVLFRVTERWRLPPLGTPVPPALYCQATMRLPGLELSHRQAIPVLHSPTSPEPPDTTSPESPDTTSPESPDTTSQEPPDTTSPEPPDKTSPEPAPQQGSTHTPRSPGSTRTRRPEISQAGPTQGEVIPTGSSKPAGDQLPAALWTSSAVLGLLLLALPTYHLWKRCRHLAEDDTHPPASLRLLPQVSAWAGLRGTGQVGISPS

T2: mouse MAdCAM expressed on cells (mouse, UniProt Q61826 22-405)
T2 construct: whole, on cells
T2 sequence (looked up): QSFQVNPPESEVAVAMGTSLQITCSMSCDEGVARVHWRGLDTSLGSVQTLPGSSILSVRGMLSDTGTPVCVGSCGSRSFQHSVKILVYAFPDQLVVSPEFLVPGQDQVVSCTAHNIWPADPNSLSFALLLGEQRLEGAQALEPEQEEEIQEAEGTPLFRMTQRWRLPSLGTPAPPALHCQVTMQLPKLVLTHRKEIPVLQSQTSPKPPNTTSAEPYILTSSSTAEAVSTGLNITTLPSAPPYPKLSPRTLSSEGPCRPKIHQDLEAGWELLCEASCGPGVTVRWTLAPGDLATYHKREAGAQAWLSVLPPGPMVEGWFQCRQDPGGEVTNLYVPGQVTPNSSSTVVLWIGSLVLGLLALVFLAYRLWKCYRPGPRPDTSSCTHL

B1: MAdCAM antibody Clone ID 16 of Table 6 (scFv) (scFv)
scFv: EVQLLESGGGLVQPGGSLRLSCAASGFTFEDYAMHWVRQAPGKGLEWVSYLNSDGGSTSYADSVKGRFTISRDNSKNTLYLQMNSLRAEDTAVYYCAKDYCTNGVCAFDYWGQGTLVTVSSGGGGSGGGGSGGGGSGGGGSDIQMTQSPSSLSASVGDRVTITCRASQSISTYLNWYQQKPGKAPKLLIYDASNLETGVPSRFSGSGSGTDFTLTISSLQPEDFATYYCQQSYTIPITFGQGTRLEIK
B2: MAdCAM antibody Clone ID 29 of Table 6 (scFv) (scFv)
scFv: QVQLVQSGAEVKKPGASVKVSCKASGYTFTSYYMHWVRQAPGQGLEWMAWMNPNSGNTGYAQKFQGRVTMTRDTSTSTVYMELSSLRSEDTAVYYCARDYDFWSGSLGYWGQGTLVTVSSGGGGSGGGGSGGGGSGGGGSDIQMTQSPSSLSASVGDRVTITCRASQGISNYLAWYQQKPGKAPKLLIYAASSLQSGVPSRFSGSGSGTDFTLTISSLQPEDFATYYCQQSYSTPWTFGQGTKVEIK
B3: MAdCAM antibody Clone ID 17 of Table 6 (scFv) (scFv)
scFv: EVQLLESGGGLVQPGGSLRLSCAASGFTFSDSAMHWVRQAPGKGLEWVSAISGSGSTIYYADSVKGRFTISRDNSKNTLYLQMNSLRAEDTAVYYCVSDIAVAGHWYFDLWGRGTLVTVSSGGGGSGGGGSGGGGSGGGGSDIQMTQSPSSLSASVGDRVTITCRASQSISTFLNWYQQKPGKAPKLLIYAASRLEGGVPSRFSGSGSGTDFTLTISSLQPEDFATYYCQQANSFPLTFGPGTKVDIK
B4: MAdCAM antibody Clone ID 27 of Table 6 (scFv) (scFv)
scFv: QVQLVQSGAEVKKPGASVKVSCKASGYTFTGYYIHWVRQAPGQGLEWMGWMNPNSGNTGYAQKFQGRVTMTRDTSTSTVYMELSSLRSEDTAVYYCARDPGFLGYCSGGSCYDGWFDPWGQGTLVTVSSGGGGSGGGGSGGGGSGGGGSDIQMTQSPSSLSASVGDRVTITCRASQSISSYLHWYQQKPGKAPKLLIYAASSLQSGVPSRFSGSGSGTDFTLTISSLQPEDFATYYCQQSYTAPYTFGQGTKLEIK
B5: MAdCAM antibody Clone ID 10 of Table 6 (scFv) (scFv)
scFv: QVQLVQSGAEVKKPGASVKVSCKASGYTLTTWYMYWVRQAPGQGLEWMGWINPNRGATNYAQKFQGRVTMTRDTSTSTVYMELSSLRSEDTAVYYCAKGDLWGAMDVWGQGTLVTVSSGGGGSGGGGSGGGGSGGGGSDIQMTQSPSSLSASVGDRVTITCRASDNIGSWLAWYQQKPGKAPKLLIYAASSLQSGVPSRFSGSGSGTDFTLTISSLQPEDFATYYCQQGYSTPPTFGQGTKVEIK
B6: MAdCAM antibody Clone ID 26 of Table 6 (scFv) (scFv)
scFv: B5 scFv with L113T
B7: MAdCAM antibody Clone ID 14 of Table 6 (scFv) (scFv)
scFv: QVQLVQSGAEVKKPGSSVKVSCKASGYTFTDYHIHWVRQAPGQGLEWMGGIVPRSGSTTYAQKFQGRVTITADESTSTAYMELSSLRSEDTAVYYCAKDESSGWYYFDYWGQGTLVTVSSGGGGSGGGGSGGGGSGGGGSDIVMTQSPLSLPVTPGEPASISCRSSQSLLHSNGYNYLDWYLQKPGQSPQLLIYSAYNRASGVPDRFSGSGSGTDFTLKISRVEAEDVGVYYCMQALQTPLTFGQGTKVEIK
B8: MAdCAM antibody Clone ID 58 of Table 6 (scFv) (scFv)
scFv: QVQLVQSGAEVKKPGASVKVSCKASGYTFTGYYMHWVRQAPGQGLEWMGIINPSGGNTKYAQKFQGRVTMTRDTSTSTVYMELSSLRSEDTAVYYCTTADYYYYMDVWGKGTTVTVSSGGGGSGGGGSGGGGSGGGGSDIQMTQSPSSLSASVGDRVTITCRASQGISNYLAWYQQKPGKAPKLLIYAASSLQSGVPSRFSGSGSGTDFTLTISSLQPEDFATYYCQQYYSNADFGQGTKVEIK
B9: MAdCAM antibody Clone ID 13 of Table 6 (scFv) (scFv)
scFv: EVQLLESGGGLVQPGGSLRLSCAASGFTFDDYAMHWVRQAPGKGLEWVSYIDASGTTIYYADSVKGRFTISRDNSKNTLYLQMNSLRAEDTAVYYCAKDQAAAGYWYFDLWGRGTLVTVSSGGGGSGGGGSGGGGSGGGGSDIQMTQSPSSLSASVGDRVTITCQASQDISNYLNWYQQKPGKAPKLLIYKASTLESGVPSRFSGSGSGTDFTLTISSLQPEDFATYYCQQSYSTPITFGQGTRLEIK
B10: MAdCAM antibody Clone ID 21 of Table 6 (scFv) (scFv)
scFv: EVQLLESGGGLVQPGGSLRLSCAASGFTFSNAWMSWVRQAPGKGLEWVSTIVGNGGATYYADSVKGRFTISRDNSKNTLYLQMNSLRAEDTAVYYCARDNPLRWQGMDVWGQGTLVTVSSGGGGSGGGGSGGGGSGGGGSDIQMTQSPSSLSASVGDRVTITCRASQDISNYLNWYQQKPGKAPKLLIYAASSLQSGVPSRFSGSGSGTDFTLTISSLQPEDFATYYCQQSYSIPPTFGPGTKVDIK
B11: MAdCAM antibody Clone ID 8 of Table 6 (scFv) (scFv)
scFv: EVQLLESGGGLVQPGGSLRLSCAASGFMFGDYAMHWVRQAPGKGLEWVSAISGSGGSTYYADSVKGRFTISRDNSKNTLYLQMNSLRAEDTAVYYCAKDLVVAGIWYFDLWGRGTLVTVSSGGGGSGGGGSGGGGSGGGGSDIQMTQSPSSLSASVGDRVTITCRASQGISNNLNWYQQKPGKAPKLLIYDASSLESGVPSRFSGSGSGTDFTLTISSLQPEDFATYYCQQTHSFPSTFGQGTKLEIK
B12: MAdCAM antibody Clone ID 28 of Table 6 (scFv) (scFv)
scFv: QVQLVQSGAEVKKPGASVKVSCKASGYTFTDYFLHWVRQAPGQGLEWMGWMNPTSGNTGYAQKFQGRVTMTRDTSTSTVYMELSSLRSEDTAVYYCAREGEGSGFDYWGQGTLVTVSSGGGGSGGGGSGGGGSGGGGSDIQMTQSPSSLSASVGDRVTITCRASQGINSWLAWYQQKPGKAPKLLIYDASNLETGVPSRFSGSGSGTDFTLTISSLQPEDFATYYCQQSYSTPLTFGGGTKVEIK
B13: MAdCAM antibody Clone ID 11 of Table 6 (scFv) (scFv)
scFv: QVQLVQSGAEVKKPGASVKVSCKASGYTFTTYYMHWVRQAPGQGLEWMGGFDPEDGETIYAQKFQGRVTMTRDTSTSTVYMELSSLRSEDTAVYYCARHAVAGAVGAGYYYYGMDVWGQGTMVTVSSGGGGSGGGGSGGGGSGGGGSDIQMTQSPSSLSASVGDRVTITCRASESISNWLAWYQQKPGKAPKLLIYAASTLQSGVPSRFSGSGSGTDFTLTISSLQPEDFATYYCQQSYSVPFTFGPGTKVDIK
B14: MAdCAM antibody Clone ID 15 of Table 6 (scFv) (scFv)
scFv: QVQLVQSGAEVKKPGSSVKVSCKASGYTFTNYYMHWVRQAPGQGLEWMGGIIPIVDRVKYAQKFQGRVTITADESTSTAYMELSSLRSEDTAVYYCAKGRYTVNYYYGMDVWGQGTTVTVSSGGGGSGGGGSGGGGSGGGGSDIQMTQSPSSLSASVGDRVTITCQANQDISNYLNWYQQKPGKAPKLLIYRASKLEAGVPSRFSGSGSGTDFTLTISSLQPEDFATYYCQQSSEIPYSFGQGTKLEIK

biological target: T1, human MAdCAM expressed on cells; assay: cell binding

Binder	binding result
B1	binds
B2	binds
B3	binds
B4	binds
B5	binds
B6	binds
B7	binds
B8	binds
B9	binds
B10	binds
B11	binds
B12	binds
B13	binds
B14	binds

biological target: T2, mouse MAdCAM expressed on cells; assay: cell binding

Binder	binding result
B1	no binding
B2	no binding
B3	no binding
B4	no binding
B5	no binding
B6	no binding
B7	no binding
B8	no binding
B9	no binding
B10	no binding
B11	no binding
B12	no binding
B13	no binding
B14	no binding
